The target in this test is CD16a (UniProt P08637 17-208). As to the kind of experiment: SPR. A general note: In SPR one partner is held on a chip, and binding of the other changes the refractive index at the surface.
Chain of CD16a (P08637 17-208): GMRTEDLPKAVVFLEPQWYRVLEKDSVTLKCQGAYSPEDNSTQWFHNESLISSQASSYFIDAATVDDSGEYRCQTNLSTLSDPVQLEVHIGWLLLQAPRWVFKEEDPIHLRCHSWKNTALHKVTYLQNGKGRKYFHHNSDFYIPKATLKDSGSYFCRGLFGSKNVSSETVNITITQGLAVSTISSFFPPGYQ

B1: Anti-CD16 nanobody (VHH)
VHH: EVQLTESGGEDVQAGGSLRLSCSASGLTFSSYNMGWFRRAPGKEREFVASITWSGRDTFYADSVKGRFTISRDNAKNTVYLQMSSLKPEDTATYYCAANPWPVAAPRSGTYWGEGTQVTV
In turn, B1 came in with a Kd of 2.6 nM.

As usually defined, the Kd is the concentration at which binding is half-saturated. Higher therefore signals weaker binding.
